Assay results as given in patent US20090130105A1 (Biogen, published 2009).

B1: M13-C06 antibody (antibody, V domains shown)
VH: EVQLLESGGGLVQPGGSLRLSCAASGFTFSIYRMQWVRQAPGKGLEWVSGISPSGGTTWYADSVKGRFTISRDNSKNTLYLQMNSLRAEDTAVYYCARWSGGSGYAFDIWGQGTMVTVSS
VL: DIQMTQSPLSLSASVGDRVTITCQASRDIRNYLNWYQQKPGKAPKLLIYDASSLQTGVPSRFGGSGSGTDFSFTIGSLQPEDIATYYCQQFDSLPHTFGQGTKLEIK
notes: Fully human full-length antibody (ATCC PTA-7444); also called M13.C06.G4.P.agly; M13-C06.G4P.agly
B2: M13-C06 Fab (Fab, V domains shown)
VH: B1 VH
VL: B1 VL
notes: Fab made by enzymatic digestion of the IgG

Key:
[1] = target: human IGF-1R on H322M non-small cell lung cancer cells (human, UniProt P08069 31-1367); experiment: cell-based or functional assay
Chain of human IGF-1R on H322M non-small cell lung cancer cells (P08069 31-1367, stated change not applied): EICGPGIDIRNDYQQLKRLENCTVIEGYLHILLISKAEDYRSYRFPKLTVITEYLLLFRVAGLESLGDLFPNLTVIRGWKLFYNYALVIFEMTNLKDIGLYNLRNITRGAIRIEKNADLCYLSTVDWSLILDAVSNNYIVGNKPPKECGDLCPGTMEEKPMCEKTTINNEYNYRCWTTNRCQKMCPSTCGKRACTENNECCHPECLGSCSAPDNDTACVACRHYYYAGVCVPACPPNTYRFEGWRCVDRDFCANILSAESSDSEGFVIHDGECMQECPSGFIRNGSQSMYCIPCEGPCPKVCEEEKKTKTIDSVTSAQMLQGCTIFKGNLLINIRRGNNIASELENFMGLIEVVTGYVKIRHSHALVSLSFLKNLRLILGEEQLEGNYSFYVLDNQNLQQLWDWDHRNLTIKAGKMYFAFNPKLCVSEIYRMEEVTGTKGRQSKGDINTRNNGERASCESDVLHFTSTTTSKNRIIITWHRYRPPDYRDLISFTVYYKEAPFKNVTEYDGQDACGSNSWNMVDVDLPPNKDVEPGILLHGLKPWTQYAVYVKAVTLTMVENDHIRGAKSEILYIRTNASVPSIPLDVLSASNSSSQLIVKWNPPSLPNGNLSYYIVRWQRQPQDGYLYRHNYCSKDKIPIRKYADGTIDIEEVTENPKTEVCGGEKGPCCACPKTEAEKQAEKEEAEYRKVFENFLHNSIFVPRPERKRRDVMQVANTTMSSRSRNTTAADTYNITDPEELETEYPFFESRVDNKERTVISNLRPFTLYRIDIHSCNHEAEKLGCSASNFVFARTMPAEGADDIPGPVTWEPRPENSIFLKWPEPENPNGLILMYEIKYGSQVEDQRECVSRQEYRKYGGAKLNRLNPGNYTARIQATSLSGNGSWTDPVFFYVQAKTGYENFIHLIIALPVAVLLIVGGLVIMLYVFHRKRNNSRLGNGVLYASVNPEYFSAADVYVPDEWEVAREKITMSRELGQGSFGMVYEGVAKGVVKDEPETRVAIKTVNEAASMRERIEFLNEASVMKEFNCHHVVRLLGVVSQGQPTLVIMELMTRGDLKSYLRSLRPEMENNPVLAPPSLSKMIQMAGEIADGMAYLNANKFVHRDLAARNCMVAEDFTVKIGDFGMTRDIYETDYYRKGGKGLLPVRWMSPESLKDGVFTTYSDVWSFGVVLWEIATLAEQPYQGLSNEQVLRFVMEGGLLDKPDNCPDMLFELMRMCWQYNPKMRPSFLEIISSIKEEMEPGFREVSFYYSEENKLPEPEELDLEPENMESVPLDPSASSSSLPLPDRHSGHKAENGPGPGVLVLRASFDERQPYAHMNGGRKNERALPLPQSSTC

[2] = target: T1, hIGF-1R-Fc mutant SD103 (D461A, V462T) (human, UniProt P08069 31-933); experiment: SPR, immobilized antibody
T1 construct: not shown: human IgG1 Fc, C-terminal tag
T1 sequence (P08069 31-933 D491A/V492T): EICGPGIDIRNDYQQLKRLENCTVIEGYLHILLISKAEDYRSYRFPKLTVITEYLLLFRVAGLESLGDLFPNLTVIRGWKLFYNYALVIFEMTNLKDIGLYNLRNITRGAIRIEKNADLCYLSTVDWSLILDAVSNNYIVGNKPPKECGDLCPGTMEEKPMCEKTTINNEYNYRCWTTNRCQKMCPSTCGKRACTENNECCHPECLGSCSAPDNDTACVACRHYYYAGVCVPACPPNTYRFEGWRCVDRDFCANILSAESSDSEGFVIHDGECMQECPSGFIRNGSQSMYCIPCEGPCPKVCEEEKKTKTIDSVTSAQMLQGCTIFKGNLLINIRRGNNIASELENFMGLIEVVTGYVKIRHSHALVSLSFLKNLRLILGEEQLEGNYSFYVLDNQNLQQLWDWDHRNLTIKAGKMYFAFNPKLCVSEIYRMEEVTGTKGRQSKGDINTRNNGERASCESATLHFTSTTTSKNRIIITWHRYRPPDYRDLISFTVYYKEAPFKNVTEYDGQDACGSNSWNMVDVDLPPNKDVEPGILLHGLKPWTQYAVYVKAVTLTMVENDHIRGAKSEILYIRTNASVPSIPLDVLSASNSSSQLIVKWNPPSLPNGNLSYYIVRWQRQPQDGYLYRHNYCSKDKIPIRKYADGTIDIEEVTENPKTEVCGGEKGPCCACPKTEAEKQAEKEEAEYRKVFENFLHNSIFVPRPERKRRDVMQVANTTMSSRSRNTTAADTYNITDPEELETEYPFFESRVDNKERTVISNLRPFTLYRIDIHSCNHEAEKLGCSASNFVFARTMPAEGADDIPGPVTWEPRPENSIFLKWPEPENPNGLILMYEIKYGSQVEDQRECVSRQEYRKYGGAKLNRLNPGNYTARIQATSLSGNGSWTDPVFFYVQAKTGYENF
Procedure: Surface plasmon resonance (SPR) experiments were performed on a Biacore 3000 instrument set to 25° C. […] The antibody sensorchip surfaces were prepared by injecting each antibody (diluted 100 μg/mL in 10 mM Acetate, pH 4.0) over EDC/NHS-activated sensorchip surfaces according to the standard protocol of the manufacturer. […] Both hIGF-1R-Fc and mIGF-1R-Fc proteins oligomerize due to the incorporation of two separate homodimeric regions (IGF-1R and IgG1-Fc). […] After, completion of the receptor-Fc loading step, flow rates were elevated to 5 μl/min. […] Dissociation was measured for 7 minutes after the antibody injections were complete. Finally, the flow rate was elevated to 30 μL/min and the chip surfaces were regenerated by 2×10 μL injections of 0.1 M glycine, pH 2.

[3] = target: T2, sIGF-1R(1-903) (human, UniProt P08069 31-933); experiment: SEC with static light scattering
T2 construct: also called soluble IGF-1R ectodomain
T2 sequence (P08069 31-933): as the sequence (P08069 31-933 D491A/V492T) above, with A461D, T462V counted along it
Procedure: Analytical size exclusion chromatography (SEC) with in-line static light scattering. […] All samples contained 25 μg of each protein diluted to a final volume of 50 μL in PBS, pH 7.2, before injection onto the SEC column onto a TSKgel G3000SW XL, 5 mm, 250 Å Analytical SEC column (Tosoh Biosciences) equilibrated in 10 mM phosphate, 150 mM NaCl, 0.02% sodium Azide at pH 6.8 using an Agilent 1100 HPLC system. Light scattering data for material eluting from the SEC column were collected using a miniDAWN static light scattering detector coupled to an in-line refractive index meter (Wyatt Technologies). Light scattering data were analyzed using the ASTRA V software provided by the manufacturer.
All samples were diluted to a final volume of 50 μL in PBS, pH 7.2 before SEC/static light scattering analysis.

[4] = target: T2, sIGF-1R(1-903); experiment: ITC series titration, C06 MAb first
Procedure: (§1) The protein solutions were prepared as described above for the MAb binding experiments. All ITC experiments were performed on an ITC₂₀₀ microcalorimeter (MicroCal, LLC) at 25° C. […] IGF-1R bispecific antibodies. A four minute equilibration period was used between all injections with an initial delay of 60 seconds. Numerical integration of the data was performed using the ITC data analysis software supplied by MicroCal (Origin). ΔHA° (T) values were calculated based on the difference between the average heat liberated/absorbed during the binding phase of the injections and the average heat of dilution found once the receptor, IGF-1R, was saturated with MAb or BsAb.
Both the dimeric receptor and the bivalent MAbs contain two potential binding sites.

[5] = target: T3, hIGF-1R-Fc mutant SD015 (H464E) (human, UniProt P08069 31-933); experiment: SPR (Biacore relative RUmax) and tr-FRET competition
T3 construct: not shown: human IgG1 Fc, C-terminal tag
T3 sequence (P08069 31-933 H494E): as the sequence (P08069 31-933 D491A/V492T) above, with A461D, T462V, H464E counted along it
Procedure: (§2) After, completion of the receptor-Fc loading step, flow rates were elevated to 5 μl/min. […] At the end of each sensorgram, the flow rate was elevated to 30 μl/min and the chip surface was regenerated by 2×10 μL injections of 0.1 M glycine, pH 2.

[6] = target: T2, sIGF-1R(1-903); experiment: ITC, 25 °C; footnote a: affinity too high for accurate measurement
Procedure: as §1, with “Isothermal Titration Calorimetry (ITC). […] The reagents were co-dialyzed against PBS, pH 7.2. The protein solutions were adjusted to the concentrations listed above by dilution using PBS dialysate. […] The” for “The”

[7] = target: T4, human IGF-1R(1-903)-Fc (human, UniProt P08069 31-933); experiment: IGF-1 blocking ELISA at 20 nM IGF-1 His on biotinylated hIGF-1R-Fc
T4 construct: also called hIGF-1R-Fc; SDWT; not shown: human IgG1 Fc, C-terminal tag
T4 sequence (P08069 31-933): as the sequence (P08069 31-933 D491A/V492T) above, with A461D, T462V counted along it
Procedure: (§3) The dilutions were added to the plates in duplicate at 100 μL/well and the plates were incubated at RT for 1 hour. The plates were then washed four times with 200 μL/well PBST. An HRP-conjugated anti-Histag antibody (Penta-His HRP Conjugate, QIAGEN, Cat. No. 1014992) was diluted 1:1000 in PBST and added to plates at 100 μL/well, and the plates were incubated at RT for one hour. The plates were then washed four times with 200 μL/well PBST. SureBlue Reserve TMB Microwell Peroxidase Substrate (KPL, Cat. No. 53-00-01) was added to plates at 100 μL/well followed by 1% phosphoric acid at 100 μL/well once the desired reaction was observed. The absorbance of each well was determined at 450 nm, and the results were normalized and plotted against the log of antibody concentration.
(§4) Ligand Blocking Properties.

[8] = target: T4, human IGF-1R(1-903)-Fc; experiment: IGF-1 blocking ELISA at 80 nM IGF-1 His on biotinylated hIGF-1R-Fc
Procedure: as §3, §4

[9] = target: T4, human IGF-1R(1-903)-Fc; experiment: IGF-1 blocking ELISA at 320 nM IGF-1 His on biotinylated hIGF-1R-Fc
Procedure: as §3, §4

[10] = target: T4, human IGF-1R(1-903)-Fc; experiment: IGF-2 blocking ELISA: antibody titrated in 640 nM IGF-2 His on biotinylated hIGF-1R-Fc on streptavidin plates, bound ligand detected with anti-His-HRP
[11] = target: T5, hIGF-1R-Fc mutant SD006 (A227K) (human, UniProt P08069 31-933); experiment: SPR: receptor-Fc captured on M13-C06 chip, then M13-C06 Fab; relative to wild type
T5 construct: not shown: human IgG1 Fc, C-terminal tag
T5 sequence (P08069 31-933 A257K): as the sequence (P08069 31-933 D491A/V492T) above, with A227K, A461D, T462V counted along it
Procedure: as §2

[12] = target: T4, human IGF-1R(1-903)-Fc; experiment: IGF-1 blocking ELISA: antibody titrated in 320 nM IGF-1 His on biotinylated hIGF-1R-Fc on streptavidin plates, bound ligand detected with anti-His-HRP
Procedure: as §3, §4

Binder | reduction of surface IGF-1R after 24 hours (FACS, H322M cells) [1] [%] | binding result [2] | molecular weight of the complex [3] [MDa] | ΔH° [4] [kcal/mol] | binding result [5] | -TΔS [6] [kcal/mol] | Kd [6] [nM] | ΔG [6] [kcal/mol] | IC50 (read off the curve) [7] [nM] | IC50 (read off the curve) [8] [nM] | IC50 (read off the curve) [9] [nM] | IC50 (read off the curve) [10] [nM] | Biacore Relative RUmax [11] | IC50 (read off the curve) [12] [nM]
B1 | > 70 | no binding | 2 | -21.9 | no binding | 10.6 | ≤ 5 | -11.3 | ~1 | ~1 | ~1 | ~1 | – | –
B2 | – | – | – | – | – | – | – | – | – | – | – | – | 1.7 | ~1
